# Measurements published in patent US20200199241A1 (Chugai, published 2020).
# Where a chain is given by its changes, count along the chain named. Names may count otherwise.
# B1: IgG1-F84 (antibody)
# heavy: QVQLQESGPGLVKPSETLSLTCAVSGHSISHDHAWSWVRQPPGEGLEWIGFISYSGITNYNPSLQGRVTISRDNSKNTLYLQMNSLRAEDTAVYYCARSLARTTAMDYWGEGTLVTVSSASTKGPSVFPLAPSSKSTSGGTAALGCLVKDYFPEPVTVSWNSGALTSGVHTFPAVLQSSGLYSLSSVVTVPSSSLGTQTYICNVNHKPSNTKVDKKVEPKSCDKTHTCPPCPAPELLGGPSVFLFPPKPKDTLWISRQPEVTCVVVDVSHEDPEVKFNWYVDGVEVHNAKTKPREEQYNSTYRVVSVLTVLHQDWLNGKEYKCKVSNKALPAPIEKTISKAKGQPREPQVYTLPPSRDELTKNQVSLTCLVKGFYPSDIAVEWESNGQPENNYKTTPPVLDSDGSFFLYSKLTVDKSRWQQGNVFSCSVMHEALHWHYTQKSLSLSP
# light: not shown
# notes: EU numbering; copies: 2 + 2
# B2: IgG1-F159 (antibody)
# heavy: B1 heavy with W254M, Q258T, P259V, V310P, M430L, W436Y
# light: not shown
# notes: EU numbering; copies: 2 + 2
# B3: IgG1-F93 (antibody)
# heavy: B1 heavy with Q258T, M430L
# light: not shown
# notes: copies: 2 + 2
# B4: IgG1-F147 (antibody)
# heavy: B1 heavy with W254Y, Q258T, V310I, W436Y
# light: not shown
# notes: EU numbering; copies: 2 + 2
# B5: IgG1-F166 (antibody)
# heavy: B1 heavy with Q258T, T309Q, W436Y
# light: not shown
# notes: EU numbering; copies: 2 + 2
# B6: IgG1-F165 (antibody)
# heavy: B1 heavy with Q258T, D267A, W436Y
# light: not shown
# notes: EU numbering; copies: 2 + 2
# B7: IgG1-F130 (antibody)
# heavy: B1 heavy with W254Y, Q258T, V310M, W436Y
# light: not shown
# notes: EU numbering; label printed 'F130' between F149 and F152 (perhaps F150); copies: 2 + 2
# B8: IgG1-F122 (antibody)
# heavy: B1 heavy with W254Y, Q258E, M430L
# light: not shown
# notes: EU numbering; copies: 2 + 2
# B9: IgG1-F154 (antibody)
# heavy: B1 heavy with W254Y, Q258T, V310T, W436Y
# light: not shown
# notes: EU numbering; copies: 2 + 2
# B10: IgG1-F104 (antibody)
# heavy: B1 heavy with W254Y, Q258T, D267A, V310P, W436Y
# light: not shown
# notes: EU numbering; copies: 2 + 2
# B11: IgG1-F92 (antibody)
# heavy: B1 heavy with W254Y, S256T, Q258E, V310P, M430L
# light: not shown
# notes: EU numbering; copies: 2 + 2
# B12: IgG1-F134 (antibody)
# heavy: B1 heavy with W254M, Q258T, P259N, M430L, W436Y
# light: not shown
# notes: EU numbering; copies: 2 + 2
# B13: IgG1-F128 (antibody)
# heavy: B1 heavy with W254M, Q258T, P259L, M430L
# light: not shown
# notes: EU numbering; copies: 2 + 2
# B14: IgG1-F108 (antibody)
# heavy: B1 heavy with W254Y, Q258T, V307A, V310P, W436Y
# light: not shown
# notes: EU numbering; copies: 2 + 2
# B15: IgG1-F87 (antibody)
# heavy: B1 heavy with W254M, S256T, W436Y
# light: not shown
# notes: EU numbering; copies: 2 + 2
# B16: IgG1-F105 (antibody)
# heavy: B1 heavy with W254Y, Q258T, T309A, V310P, W436Y
# light: not shown
# notes: EU numbering; copies: 2 + 2
# B17: IgG1-F113 (antibody)
# heavy: B1 heavy with W254Y, Q258T, V310P, E384A, W436Y
# light: not shown
# notes: EU numbering; copies: 2 + 2
# B18: IgG1-F106 (antibody)
# heavy: B1 heavy with W254Y, Q258T, V305A, V310P, W436Y
# light: not shown
# notes: EU numbering; copies: 2 + 2
# B19: IgG1-F162 (antibody)
# heavy: B1 heavy with Q258T, M430Y, W436Y
# light: not shown
# notes: EU numbering; copies: 2 + 2
# B20: IgG1-F139 (antibody)
# heavy: B1 heavy with Q258T, V310P
# light: not shown
# notes: EU numbering; copies: 2 + 2
# B21: IgG1-F140 (antibody)
# heavy: B1 heavy with S241K, W254Y, Q258T, V310P, W436Y
# light: not shown
# notes: copies: 2 + 2
# B22: IgG1-F163 (antibody)
# heavy: B1 heavy with Q258T, M430F, W436Y
# light: not shown
# notes: EU numbering; copies: 2 + 2
# B23: IgG1-F152 (antibody)
# heavy: B1 heavy with W254Y, Q258T, V310Q, W436Y
# light: not shown
# notes: EU numbering; copies: 2 + 2
# B24: IgG1-F125 (antibody)
# heavy: B1 heavy with W254Y, S256T, Q258E, V310P, M430L, W436Y
# light: not shown
# notes: EU numbering; copies: 2 + 2
# B25: IgG1-F131 (antibody)
# heavy: B1 heavy with W254M, Q258T, P259G, M430L, W436Y
# light: not shown
# notes: EU numbering; copies: 2 + 2
# B26: IgG1-F86 (antibody)
# heavy: B1 heavy with W254M, S256T
# light: not shown
# notes: EU numbering; copies: 2 + 2
# B27: IgG1-F107 (antibody)
# heavy: B1 heavy with W254Y, Q258T, V310P, D378A, W436Y
# light: not shown
# notes: EU numbering; copies: 2 + 2
# B28: IgG1-F94 (antibody)
# heavy: B1 heavy with W254M, Q258T, P259L, M430L, W436Y
# light: not shown
# notes: copies: 2 + 2
# B29: IgG1-F109 (antibody)
# heavy: B1 heavy with W254Y, Q258T, V310P, Q313A, W436Y
# light: not shown
# notes: EU numbering; 'M4252Y' read as M252Y; copies: 2 + 2
# B30: IgG1-F157 (antibody)
# heavy: B1 heavy with W254M, Q258T, P259A, V310P, M430L, W436Y
# light: not shown
# notes: copies: 2 + 2
# B31: IgG1-F133 (antibody)
# heavy: B1 heavy with W254M, Q258T, P259M, M430L, W436Y
# light: not shown
# notes: EU numbering; copies: 2 + 2
# B32: IgG1-F88 (antibody)
# heavy: B1 heavy with W254Y, S256T
# light: not shown
# notes: EU numbering; copies: 2 + 2
# B33: IgG1-F112 (antibody)
# heavy: B1 heavy with W254Y, Q258T, V310P, E382A, W436Y
# light: not shown
# notes: EU numbering; copies: 2 + 2
# B34: IgG1-F124 (antibody)
# heavy: B1 heavy with W254Y, Q258E, M430L, W436Y
# light: not shown
# notes: EU numbering; copies: 2 + 2
# B35: IgG1-F160 (antibody)
# heavy: B1 heavy with Q258T, M430I, W436Y
# light: not shown
# notes: EU numbering; copies: 2 + 2
# B36: IgG1-F120 (antibody)
# heavy: B1 heavy with W254M, Q258T, P259L, V310P, M430L, W436Y
# light: not shown
# notes: EU numbering; copies: 2 + 2
# B37: IgG1-F99 (antibody)
# heavy: B1 heavy with W254Y, Q258E, W436H
# light: not shown
# notes: EU numbering; copies: 2 + 2
# B38: IgG1-F137 (antibody)
# heavy: B1 heavy with W254M, Q258T, P259V, M430L, W436Y
# light: not shown
# notes: EU numbering; copies: 2 + 2
# B39: IgG1-F149 (antibody)
# heavy: B1 heavy with W254Y, Q258T, V310L, W436Y
# light: not shown
# notes: EU numbering; copies: 2 + 2
# B40: IgG1-F145 (antibody)
# heavy: B1 heavy with W254Y, Q258T, V310F, W436Y
# light: not shown
# notes: EU numbering; copies: 2 + 2
# B41: IgG1-F89 (antibody)
# heavy: B1 heavy with W254Y, S256T, W436Y
# light: not shown
# notes: EU numbering; copies: 2 + 2
# B42: IgG1-F85 (antibody)
# heavy: B1 heavy with W436Y
# light: not shown
# notes: EU numbering; copies: 2 + 2
# B43: IgG1-F132 (antibody)
# heavy: B1 heavy with W254M, Q258T, P259I, M430L, W436Y
# light: not shown
# notes: EU numbering; copies: 2 + 2
# B44: IgG1-F123 (antibody)
# heavy: B1 heavy with W254Y, Q258E, V310P, W436Y
# light: not shown
# notes: EU numbering; copies: 2 + 2
# B45: IgG1-F114 (antibody)
# heavy: B1 heavy with W254Y, Q258T, V310P, S426A, W436Y
# light: not shown
# notes: EU numbering; copies: 2 + 2
# B46: IgG1-F90 (antibody)
# heavy: B1 heavy with W254Y, Q258E, V310P
# light: not shown
# notes: EU numbering; copies: 2 + 2
# B47: IgG1-F103 (antibody)
# heavy: B1 heavy with P240A, W254Y, Q258T, V310P, W436Y
# light: not shown
# notes: EU numbering; copies: 2 + 2
# B48: IgG1-F101 (antibody)
# heavy: B1 heavy with P259L, W436Y
# light: not shown
# notes: EU numbering; copies: 2 + 2
# B49: IgG1-F142 (antibody)
# heavy: B1 heavy with W254Y, Q258T, D272F, V310P, W436Y
# light: not shown
# notes: EU numbering; copies: 2 + 2
# B50: IgG1-F143 (antibody)
# heavy: B1 heavy with W254Y, Q258T, V310A, W436Y
# light: not shown
# notes: EU numbering; copies: 2 + 2
# B51: IgG1-F95 (antibody)
# heavy: B1 heavy with W254Y, S256T, Q258E, M430L, W436F
# light: not shown
# notes: EU numbering; copies: 2 + 2
# B52: IgG1-F121 (antibody)
# heavy: B1 heavy with W254Y, Q258E, V310P, M430L
# light: not shown
# notes: EU numbering; copies: 2 + 2
# B53: IgG1-F91 (antibody)
# heavy: B1 heavy with W254Y, Q258T, V310P, M430L, W436Y
# light: not shown
# notes: EU numbering; copies: 2 + 2
# B54: IgG1-F141 (antibody)
# heavy: B1 heavy with W254Y, Q258T, S300G, V310P, W436Y
# light: not shown
# notes: EU numbering; copies: 2 + 2
# B55: IgG1-F111 (antibody)
# heavy: B1 heavy with W254Y, Q258T, V310P, K319A, W436Y
# light: not shown
# notes: EU numbering; copies: 2 + 2
# B56: IgG1-F158 (antibody)
# heavy: B1 heavy with W254M, Q258T, P259T, V310P, M430L, W436Y
# light: not shown
# notes: EU numbering; copies: 2 + 2
# B57: IgG1-F135 (antibody)
# heavy: B1 heavy with W254M, Q258T, P259S, M430L, W436Y
# light: not shown
# notes: EU numbering; copies: 2 + 2
# B58: IgG1-F129 (antibody)
# heavy: B1 heavy with W254M, Q258T, P259A, M430L, W436Y
# light: not shown
# notes: EU numbering; copies: 2 + 2
# B59: IgG1-F164 (antibody)
# heavy: B1 heavy with P240A, Q258T, W436Y
# light: not shown
# notes: EU numbering; copies: 2 + 2
# B60: IgG1-F136 (antibody)
# heavy: B1 heavy with W254M, Q258T, P259T, M430L, W436Y
# light: not shown
# notes: EU numbering; copies: 2 + 2
# Target: T1, human FcRn (soluble human FcRn complexed with β2-microglobulin) (human, UniProt P61769 21-119, limits assumed)
# T1 construct: also called hFcRn
# T1 sequence (chain, as listed by the source limits assumed, chain 1 of 2): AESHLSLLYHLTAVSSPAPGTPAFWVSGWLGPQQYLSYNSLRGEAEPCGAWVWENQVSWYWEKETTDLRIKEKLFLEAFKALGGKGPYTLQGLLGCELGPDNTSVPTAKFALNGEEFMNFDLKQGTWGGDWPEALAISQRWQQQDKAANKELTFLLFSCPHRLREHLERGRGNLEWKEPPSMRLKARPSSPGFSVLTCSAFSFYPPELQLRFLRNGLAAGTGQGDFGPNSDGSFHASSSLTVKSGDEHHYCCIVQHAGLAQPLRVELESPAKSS
# T1 sequence (P61769 21-119 limits assumed, chain 2 of 2): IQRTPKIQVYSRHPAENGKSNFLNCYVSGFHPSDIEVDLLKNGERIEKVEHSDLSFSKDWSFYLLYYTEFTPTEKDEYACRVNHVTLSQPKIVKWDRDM
# Assay: SPR, pH 7.0;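 note: antibodies captured on a Protein L sensor chip with human FcRn injected as analyte, KD calculated from fitted association and dissociation rate constants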
row,Binder,Kd [nM]
1,B1,280
2,B2,44
3,B3,740
4,B4,240
5,B5,150
6,B6,290
7,B7,200
8,B8,120
9,B9,180
10,B10,37
11,B11,11
12,B12,270
13,B13,170
14,B14,41
15,B15,4300
16,B16,75
17,B17,32
18,B18,37
19,B19,160
20,B20,15

row,Binder,Kd [nM]
1,B21,36
2,B22,420
3,B23,270
4,B24,24
5,B25,3000
6,B26,1500
7,B27,34
8,B28,370
9,B29,32
10,B30,150
11,B31,410
12,B32,190
13,B33,64
14,B34,290
15,B35,850
16,B36,63
17,B37,620
18,B38,460
19,B39,190
20,B40,53

row,Binder,Kd [nM]
1,B41,360
2,B42,550
3,B43,210
4,B44,30
5,B45,38
6,B46,19
7,B47,44
8,B48,110
9,B49,37
10,B50,200
11,B51,260
12,B52,15
13,B53,48
14,B54,35
15,B55,32
16,B56,59
17,B57,750
18,B58,220
19,B59,370
20,B60,380
